Reference: paper doi:10.1101/370411

Biological target: Porcine circovirus 2 (PCV2) virus like particle, Baculovirus expressed capsid protein (Porcine circovirus 2)
Test: cryo-EM structure

## Porcine circovirus 2 (PCV2) virus like particle, Baculovirus expressed capsid protein (natural protein)
  stoichiometry N: 60
